What was measured:
[1] = molecular target: T1, EGFR from U87MG.wtEGFR and A431 cells (Homo sapiens, UniProt P00533); assay: immunoprecipitation and Endo H digestion; format: binding; settings: majority / bulk of the material
T1 construct: endogenous in cells; host or cells: A431 (endogenous, amplified gene) and U87MG.wtEGFR (U87MG transfected with wtEGFR)
Procedure: This possibility was tested by immunoprecipitating the EGFR from different cells lines labelled overnight with ^35S methionine/cysteine and then subjecting the resultant precipitates to Endoglycosidase H (Endo H) digestion. This enzyme preferentially removes high mannose type carbohydrates (i.e. immature glycosylation) from proteins while leaving complex carbohydrates (i.e. mature glycosylation) intact.

[2] = test system: glioblastomas not preselected for EGFR status; assay: immunohistochemistry of 46 unselected glioblastomas; format: binding, human
Procedure: Immunohistochemical analysis was performed using […] sections of fresh frozen tissue applied to histology slides and fixed for 10 minutes in cold acetone. Bound primary antibody was detected with biotinylated horse anti-mouse antibody followed by an avidin-biotin-complex reaction. Diaminobenzidine tetrahydrochloride (DAB) was used as chromogen. The extent of the immunohistochemical reactivity in tissues was estimated by light microscopy and graded according to the number of immunoreactive cells in 25% increments as follows:
The 528 antibody was strongly and homogeneously positive in all samples except two (Nos. 27 and 29) (44/46, 95.7%).

[3] = test system: U87MG brain xenografts; assay: intracranial glioma xenograft treatment; format: in vivo, nude mice; settings: i.p. day 0 through 14
[4] = molecular target: T2, Peptide C (C-terminal biotinylated de2-7 peptide) (Homo sapiens, UniProt P00533, DELINS30-297G); assay: BIAcore with immobilized Peptide C; format: binding; settings: mAbL8A4 even at 6.25 nM, mAb806 up to 100 nM
T2 construct: purchased Biosource, Camarillo, Calif
Procedure: Peptide C was immobilized on a Streptavidin microsensor chip at a surface density of 350RU (+/−30RU). Serial dilutions of mAbs were tested for reactivity with the peptide. Blocking experiments using non-biotinylated peptide were performed to assess specificity.

[5] = test system: xenograft A431; assay: immunohistochemical analysis on xenograft tumors; format: binding, human
Description: The murine fibroblast line NR6ΔEGFR was used as immunogen. Mouse hybridomas were generated by immunizing BALB/c mice five times subcutaneously at 2- to 3-week intervals, with 5×10^5-2×10^6 cells in adjuvant. Complete Freund's adjuvant was used for the first injection. Thereafter, incomplete Freund's adjuvant (Difco™, Voigt Global Distribution, Lawrence, Kans.) was used. Spleen cells from immunized mice were fused with mouse myeloma cell line SP2/0 (Shulman et al. (1978) Nature 276:269-270). Supernatants of newly generated clones were screened in hemadsorption assays for reactivity with cell line NR6, NR6wtEGFR, and NR6ΔEGFR and then analyzed by hemadsorption assays with human glioblastoma cell lines U87MG, U87MGwtEGFR, and U87ΔEGFR. Selected hybridoma supernatants were subsequently tested by western blotting and further analyzed by immunohistochemistry. Newly generated mAbs showing the expected reactivity pattern were purified.
Bound antibody was detected using the Dako Envision+ HRP detection system as per manufacturer's instructions. Sections were finally rinsed with water, counterstained with hematoxylin and mounted.

[6] = test system: U87MG.DK cells; assay: binding to cell lines by FACS; design: species or system human
Procedure: Populations expressing similar levels of the various EGFR alleles (these expression levels correspond approximately to an amplification level of 25 gene copies; human glioblastomas typically have amplification levels from 10 to 50 gene copies of the truncated receptor) were selected by FACS as described previously (Nishikawa et al., 1994) and designated as U87MG.ΔEGFR, U87MG.DK, U87MG.wtEGFR, LN-Z308.ΔEGFR, LN-Z308.DK, LN-Z308.wtEGFR, A1207.ΔEGFR, A1207.DK, and A1207.wtEGFR, respectively. Each was maintained in medium containing G418 (U87MG cell lines, 400 μg/ml; LN-Z308 and A1207 cell lines, 800 μg/ml).
Stained cells were analyzed with a FACS Calibur using Cell Quest software (Becton-Dickinson PharMingen). […] 1. Mouse IgG2a or IgG2b was used as an isotype control.

[7] = test system: A431 cells; assay: binding to cell lines by FACS; design: species or system human

B1: mAb806: murine IgG2b monoclonal antibody, clone 806, ATCC PTA-3858; VH SEQ ID NO:2, VL SEQ ID NO:4 (antibody, listed as Mus musculus, V domains shown)
VH: MRVLILLWLFTAFPGVLSDVQLQESGPSLVKPSQSLSLTCTVTGYSITSDFAWNWIRQFPGNKLEWMGYISYSGNTRYNPSLKSRISITRDTSKNQFFLQLNSVTIEDTATYYCVTAGRGFPYWGQGTLVTVSA
VL: MVSTAQFLAFLLLWFPGARCDILMTQSPSSMSVSLGDTVSITCHSSQDINSNIGWLQQRPGKSFKGLIYHGTNLDDEVPSRFSGSGSGADYSLTISSLESEDFADYYCVQYAQFPWTFGGGTKLEIKR
For B1, the “Endo H sensitivity of the precipitated EGFR” value [1] was “sensitive to Endo H”, the Immunoreactivity ([2]; glioblastoma #1, EGFR Amp. A, 5′ MUT) was “++++ (++++=>75%)” and the Immunoreactivity ([2]; glioblastoma #2, EGFR Amp. N, WT) was “++++ (++++=>75%)”. For the same molecule, the Immunoreactivity ([2]; glioblastoma #3, EGFR Amp. N, A2) was “++++ (++++=>75%)”, the Immunoreactivity ([2]; glioblastoma #4, EGFR Amp. N, WT) was “++++ (++++=>75%)” and the Immunoreactivity ([2]; glioblastoma #5, EGFR Amp. N, 5′ MUT) was “++++ (++++=>75%)”. For the same molecule, the Immunoreactivity ([2]; glioblastoma #6, EGFR Amp. A, WT) was “++++ (++++=>75%)”, the Immunoreactivity ([2]; glioblastoma #7, EGFR Amp. N, 5′ MUT) was “++++ (++++=>75%)” and the Immunoreactivity ([2]; glioblastoma #8, EGFR Amp. A, 5′ MUT) was “++++ (++++=>75%)”. The Immunoreactivity ([2]; glioblastoma #9, EGFR Amp. A, WT) was “++++ (++++=>75%)”, the Immunoreactivity ([2]; glioblastoma #10, EGFR Amp. N, WT) was “neg” and the Immunoreactivity ([2]; glioblastoma #11, EGFR Amp. A, 5′ MUT) was “++ (++=25-50%)”. For the same molecule, the Immunoreactivity ([2]; glioblastoma #12, EGFR Amp. A, 5′ MUT) was “++ (++=25-50%)”, the Immunoreactivity ([2]; glioblastoma #13, EGFR Amp. N, WT) was “++++ (++++=>75%)” and the Immunoreactivity ([2]; glioblastoma #14, EGFR Amp. Nd, nd) was “neg”. For the same molecule, the Immunoreactivity ([2]; glioblastoma #15, EGFR Amp. N, WT) was “++ (++=25-50%)”, the Immunoreactivity ([2]; glioblastoma #16, EGFR Amp. N, nd) was “neg” and the Immunoreactivity ([2]; glioblastoma #17, EGFR Amp. N, WT) was “neg”. The Immunoreactivity ([2]; glioblastoma #18, EGFR Amp. A, 5′ MUT) was “++++ (++++=>75%)”, the Immunoreactivity ([2]; glioblastoma #19, EGFR Amp. N, WT) was “++++ (++++=>75%)” and the Immunoreactivity ([2]; glioblastoma #20, EGFR Amp. N, WT) was “neg”. The Immunoreactivity ([2]; glioblastoma #21, EGFR Amp. N, WT) was “++++ (++++=>75%)”, the Immunoreactivity ([2]; glioblastoma #22, EGFR Amp. N, WT) was “neg” and the Immunoreactivity ([2]; glioblastoma #23, EGFR Amp. N, 5′ MUT) was “++++ (++++=>75%)”. The Immunoreactivity ([2]; glioblastoma #24, EGFR Amp. A, WT) was “++++ (++++=>75%)”, the Immunoreactivity ([2]; glioblastoma #25, EGFR Amp. N, WT) was “neg” and the Immunoreactivity ([2]; glioblastoma #26, EGFR Amp. A, 5′ MUT) was “++++ (++++=>75%)”. For the same molecule, the Immunoreactivity ([2]; glioblastoma #27, EGFR Amp. N, WT) was “neg”, the Immunoreactivity ([2]; glioblastoma #28, EGFR Amp. N, WT) was “neg” and the Immunoreactivity ([2]; glioblastoma #29, EGFR Amp. N, WT) was “neg”. For the same molecule, the Immunoreactivity ([2]; glioblastoma #30, EGFR Amp. N, WT) was “++++ (++++=>75%)”, the Immunoreactivity ([2]; glioblastoma #31, EGFR Amp. N, nd) was “neg” and the Immunoreactivity ([2]; glioblastoma #32, EGFR Amp. N, 5′ MUT) was “+++ (+++=50-75%)”. For the same molecule, the Immunoreactivity ([2]; glioblastoma #33, EGFR Amp. A, 5′ MUT) was “++++ (++++=>75%)”, the Immunoreactivity ([2]; glioblastoma #34, EGFR Amp. N, WT) was “+++ (+++=50-75%)” and the Immunoreactivity ([2]; glioblastoma #35, EGFR Amp. A, 5′ MUT) was “neg”. The Immunoreactivity ([2]; glioblastoma #36, EGFR Amp. A, 5′ MUT) was “++ (++=25-50%)”, the Immunoreactivity ([2]; glioblastoma #37, EGFR Amp. A, 5′ MUT) was “+ (+=5-25%)” and the Immunoreactivity ([2]; glioblastoma #38, EGFR Amp. N, WT) was “neg”. The Immunoreactivity ([2]; glioblastoma #39, EGFR Amp. N, 5′ MUT) was “neg”, the Immunoreactivity ([2]; glioblastoma #40, EGFR Amp. A, WT) was “++++ (++++=>75%)” and the Immunoreactivity ([2]; glioblastoma #41, EGFR Amp. N, WT) was “neg”. The Immunoreactivity ([2]; glioblastoma #42, EGFR Amp. A, WT) was “++++ (++++=>75%)”, the Immunoreactivity ([2]; glioblastoma #43, EGFR Amp. nd, nd) was “neg” and the Immunoreactivity ([2]; glioblastoma #44, EGFR Amp. N, WT) was “neg”. For the same molecule, the Immunoreactivity ([2]; glioblastoma #45, EGFR Amp. N, WT) was “neg”, the Immunoreactivity ([2]; glioblastoma #46, EGFR Amp. N, nd) was “neg” and the “positive cases / glioblastomas” value ([2]; panel of 46) was 27/46. The effect on survival [3] was “did not extend survival”, the “reactivity with Peptide C” value [4] was “did not show detectable specific reactivity” and the Immunohistochemical staining [5] was “pos. (predominantly basal”. For the same molecule, the FACS staining [6] was “reacted intensely” and the FACS staining [7] was “Low, but highly reproducible, binding”.
